Source: publication PMC5029092 (Science signaling, 2011)

Assays:
recombinant human TLR2 = recombinant human TLR2 (human, UniProt O60603 21-588); assay: MST
[1] = target: recombinant human TLR4 and MD2 complex (human, UniProt O00206 24-631; Q9Y6Y9 19-160); assay: MST
Sequence of recombinant human TLR4 and MD2 complex (O00206 24-631, chain 1 of 2): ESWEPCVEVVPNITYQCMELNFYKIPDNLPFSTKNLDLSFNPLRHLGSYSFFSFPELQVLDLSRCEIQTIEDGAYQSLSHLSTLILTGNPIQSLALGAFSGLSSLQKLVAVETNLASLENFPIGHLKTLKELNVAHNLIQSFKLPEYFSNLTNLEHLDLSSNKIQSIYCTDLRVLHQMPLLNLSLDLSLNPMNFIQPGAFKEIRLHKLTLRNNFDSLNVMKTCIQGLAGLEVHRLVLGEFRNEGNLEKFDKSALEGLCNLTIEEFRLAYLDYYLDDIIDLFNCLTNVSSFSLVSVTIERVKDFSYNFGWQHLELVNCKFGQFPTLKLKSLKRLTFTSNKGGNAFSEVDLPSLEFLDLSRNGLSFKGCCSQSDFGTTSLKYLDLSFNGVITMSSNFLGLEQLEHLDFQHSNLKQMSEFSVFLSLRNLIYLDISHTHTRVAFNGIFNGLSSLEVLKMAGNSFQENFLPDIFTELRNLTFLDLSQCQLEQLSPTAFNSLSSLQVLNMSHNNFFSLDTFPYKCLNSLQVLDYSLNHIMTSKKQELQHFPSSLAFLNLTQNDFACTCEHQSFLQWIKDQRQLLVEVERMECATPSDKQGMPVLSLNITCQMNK
Sequence of recombinant human TLR4 and MD2 complex (Q9Y6Y9 19-160, chain 2 of 2): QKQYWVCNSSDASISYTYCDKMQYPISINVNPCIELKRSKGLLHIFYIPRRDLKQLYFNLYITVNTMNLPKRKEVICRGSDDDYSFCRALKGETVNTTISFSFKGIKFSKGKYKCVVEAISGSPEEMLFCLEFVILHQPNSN

Sequence of recombinant human TLR2 (O60603 21-588): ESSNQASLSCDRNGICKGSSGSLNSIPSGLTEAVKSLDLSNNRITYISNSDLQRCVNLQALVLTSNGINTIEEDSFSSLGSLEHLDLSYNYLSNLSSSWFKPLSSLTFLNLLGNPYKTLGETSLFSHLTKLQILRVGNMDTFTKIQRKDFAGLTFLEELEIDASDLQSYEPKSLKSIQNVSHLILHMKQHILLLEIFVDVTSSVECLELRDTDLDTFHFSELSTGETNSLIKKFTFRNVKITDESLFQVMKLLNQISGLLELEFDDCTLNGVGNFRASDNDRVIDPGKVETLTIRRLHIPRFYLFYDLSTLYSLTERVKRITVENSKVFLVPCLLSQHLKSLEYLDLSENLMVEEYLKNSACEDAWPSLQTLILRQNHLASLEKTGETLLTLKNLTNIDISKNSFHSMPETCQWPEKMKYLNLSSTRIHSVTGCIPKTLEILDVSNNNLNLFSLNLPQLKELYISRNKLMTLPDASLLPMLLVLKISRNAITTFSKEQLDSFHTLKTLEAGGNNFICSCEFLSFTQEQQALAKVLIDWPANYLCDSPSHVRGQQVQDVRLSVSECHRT

- Kd (recombinant human TLR2): 59 ± 10 nM
- Kd [1]: 37 ± 5 nM
B1: NT-647-labeled human decorin (natural protein, UniProt P07585 31-359, looked up)
chain: DEASGIGPEVPDDRDFEPSLGPVCPFRCQCHLRVVQCSDLGLDKVPKDLPPDTTLLDLQNNKITEIKDGDFKNLKNLHALILVNNKISKVSPGAFTPLVKLERLYLSKNQLKELPEKMPKTLQELRAHENEITKVRKVTFNGLNQMIVIELGTNPLKSSGIENGAFQGMKKLSYIRIADTNITSIPQGLPPSLTELHLDGNKISRVDAASLKGLNNLAKLGLSFNSISAVDNGSLANTPHLRELHLDNNKLTRVPGGLAEHKYIQVVYLHNNNISVVGSSDFCPPGHNTKKASYSGVSLFSNPVQYWEIQPSTFRCVYVRSAIQLGNYK
modifications: fluorophore NT-647 (Monolith NT protein Labeling Kit)
